From US5091176A, “Polymer-modified peptide drugs having enhanced biological and pharmacological activities” (W. R. Grace & Co.-Conn., priority 1990, dated 1992)

B1: A4: alkaline phosphatase coupled to mono-functional IPDI-capped methoxy polyethylene oxide, NCO:NH2 14.9:1 (conjugate, UniProt P19111 20-506, looked up)
Intestinal-type alkaline …: LVPVEEEDPAFWNRQAAQALDVAKKLQPIQTAAKNVILFLGDGMGVPTVTATRILKGQMNGKLGPETPLAMDQFPYVALSKTYNVDRQVPDSAGTATAYLCGVKGNYRTIGVSAAARYNQCKTTRGNEVTSVMNRAKKAGKSVGVVTTTRVQHASPAGAYAHTVNRNWYSDADLPADAQMNGCQDIAAQLVNNMDIDVILGGGRKYMFPVGTPDPEYPDDASVNGVRKRKQNLVQAWQAKHQGAQYVWNRTALLQAADDSSVTHLMGLFEPADMKYNVQQDHTKDPTLQEMTEVALRVVSRNPRGFYLFVEGGRIDHGHHDDKAYMALTEAGMFDNAIAKANELTSELDTLILVTADHSHVFSFGGYTLRGTSIFGLAPSKALDSKSYTSILYGNGPGYALGGGSRPDVNDSTSEDPSYQQQAAVPQASETHGGEDVAVFARGPQAHLVHGVEEETFVAHIMAFAGCVEPYTDCNLPAPTTATSIPD
modifications: coupled to IPDI-capped methoxy PEG
B2: Example IX: calf intestine alkaline phosphatase conjugated with Prepolymer A (low temperature), 1 hour reaction (conjugate, UniProt P19111 20-506, looked up)
Intestinal-type alkaline …: B1 Intestinal-type alkaline …
modifications: conjugated with Prepolymer A
B3: C2: alkaline phosphatase coupled to tri-functional Prepolymer A (high temperature), NCO:NH2 1.3:1 (conjugate, UniProt P19111 20-506, looked up)
Intestinal-type alkaline …: B1 Intestinal-type alkaline …
modifications: coupled to Prepolymer A
B4: B2: alkaline phosphatase coupled to IPDI-capped diol TAKELACK P-24, NCO:NH2 2.7:1 (conjugate, UniProt P19111 20-506, looked up)
Intestinal-type alkaline …: B1 Intestinal-type alkaline …
modifications: coupled to IPDI-capped diol polymer
B5: C1: alkaline phosphatase coupled to tri-functional Prepolymer A (high temperature), NCO:NH2 0.7:1 (conjugate, UniProt P19111 20-506, looked up)
Intestinal-type alkaline …: B1 Intestinal-type alkaline …
modifications: coupled to Prepolymer A
B6: B3: alkaline phosphatase coupled to IPDI-capped diol TAKELACK P-24, NCO:NH2 6.8:1 (conjugate, UniProt P19111 20-506, looked up)
Intestinal-type alkaline …: B1 Intestinal-type alkaline …
modifications: coupled to IPDI-capped diol polymer

How the values were obtained:
alkaline phosphatase [1] = biological target: T1, alkaline phosphatase (Bos taurus, UniProt P19111); assay: Residual enzymatic activity of alkaline phosphatase after polymer modification (Example V, Table I); assay type: biochemical; settings: for alk phos activity dA/dt: alkaline phosphatase reacted 1 hour with prepolymer at the listed NCO:protein NH2 ratio, quenched with TRIS, dialyzed; for alk phos activity % Remaining: relative to control without prepolymer, prepolymer at the listed NCO:protein NH2 ratio
Experimental: A constant amount of protein was treated with increasing amount of prepolymer and the residual activity was determined. For comparison with Prepolymer A (high temperature) prepolymers, two other isocyanate prepolymers were used. One is a 550 dalton mono methoxy polyethylene oxide end capped with IPDI; the second is a diol ([…] P-24) of molecular weight 2200 comprising 80% ethylene oxide and 20% propylene oxide, end capped with IPDI. Thus the 3+functionality of Prepolymer A is compared to mono- and di-functional isocyanate derivatives.
After one hour at ambient temperature the residual isocyanate was quenched by addition of 9 ml of 0.5 M TRIS, pH 9.0. The samples were then dialyzed vs. 0.05 M sodium borate, pH 9.0 at 4° C. using 7000 MWCO dialysis tubing. Samples of each were assayed for enzymatic activity then stored frozen.
Table 1 lists the relative amounts of protein amine and polymer isocyanate reacted, and the residual enzymatic activity remaining.

[2] = Circulatory half-life of radioiodinated peptide and conjugate after tail vein injection; set-up: species or system C57B1/6 mice; settings: mouse, in vivo
Experimental: The conjugate from Example XIII was passed over a disposable Sephadex G25 column (PD10 from Pharmacia, Inc.) to separate free from polymer-bound peptide. Confirmation of the purity of the conjugate was obtained by HPLC. About 45 μg of conjugate (based on peptide) were radiolabeled with 125-iodine using the well known chloramine-T procedure. Free 125-iodine was separated from radiolabeled conjugate using a PD10 column. Of the original 30 μCi of Na^125 I used for the iodination, more than 23 μCi were incorporated into the conjugate.
Portions of the radiolabeled YRGDS-Prepolymer A conjugate from Example XIV were injected into the tail veins of C57B1/6 mice. As a control, YRGDS free peptide was radioiodinated by the procedure described in Example XIV and also injected. At various times blood was withdrawn from the animals and the amount of radioiodine remaining in the circulation determined using a gamma counter. A biphasic clearance curve (α:β) was obtained for both species. […] Thus by coupling the peptide to this polymer its clearance rate from the circulation is markedly extended.

alkaline phosphatase [3] = biological target: T1, alkaline phosphatase; assay: Residual enzyme activity of alkaline phosphatase-Prepolymer A conjugates, p-nitrophenylphosphate as substrate (Examples IX, X); assay type: biochemical, calf; set-up: Alkaline Phosphatase from calf intestine, Type I, was obtained from Sigma; purchased Sigma Type I; host or cells: calf intestine (tissue-derived); settings: after 1 hour at ambient temperature
Experimental: Alkaline Phosphatase from calf intestine, Type I, was obtained from Sigma. A 5 mg/ml solution was prepared in 0.01 M Tris, pH 8.0, containing 1mM CaCl2. To 0.2 ml of this enzyme solution was added 0.02 ml of a 50% (w/w) solution of Prepolymer A (low temperature) in acetonitrile. After 1 hour at ambient temperature the solution was assayed for residual enzyme activity and injected into an HPLC to evaluate the molecular size of the conjugate. […] Size analysis was performed by HPLC using a Zorbax GF250 column (DuPont) and a mobile phase consisting of 0.05 M sodium phosphate, pH 7.0, with 0.3 M NaCl at a flow rate of 0.5 ml/min.

alkaline phosphatase [4] = settings: alkaline phosphatase 50 ng/well; rabbit antisera, day 35 test bleed; FIG. 1
Experimental: Antibody titers in the five rabbit sera from Example VI were determined by ELISA based on the following general procedure:
1) antigen is immobilized in 96-well PVC plates,
2) test antiserum is diluted with phosphate-TWEEN-chicken serum (PTCS) and incubated on the plate for 1 hour,
3) the plate is washed and Biotin-Protein A is added for 1 hour,
4) the plate is washed and glucose oxidase-avidin is added for 15 minutes.
5) the plate is washed and substrate (glucose+peroxidase+ABTS) is added. Absorbance at 405 nm is read at intervals on a plate reader.

| Molecule | alk phos activity dA/dt (alkaline phosphatase [1]) | alk phos activity % Remaining (alkaline phosphatase [1]) [%] | also measured |
| --- | --- | --- | --- |
| alkaline phosphatase | 0.1200 | 100.0 |  |
| tyr-arg-gly-aspser [YRGDS free peptide] |  |  | half-life of the initial phase (t178 α) [2]: 30 s; label cleared in the initial phase [2]: about 75%; second phase half life (t1/2 β) [2]: 2 hours 40 minutes |
| B1 | 0.0313 | 26.1 |  |
| B2 |  |  | enzymatic activity remained after the reaction (alkaline phosphatase [3]): 54% |
| B3 | 0.0688 | 57.5 |  |
| B4 | 0.0604 | 50.3 |  |
| B5 |  |  | binding of the antiserum raised against the antigen to immobilized alkaline phosphatase (immunogenicity) (alkaline phosphatase [4]): negligible binding |
| B6 | 0.0389 | 32.4 |  |
